Drawing on patent US20140011728A1, this text covers NO release for one substance.

For the assay, the target named is IL-1 receptor expressed by INS-1 cells (rat (INS-1 cells are derived from a rat insulinoma)) (UniProt Q02955).

With IL-1β (ligand), the NO release came to 6.56 µM.
